Laboratory results published in patent publication US20060211075.

T1: peptide 23, Dap-substituted pyrene derivative at Y+3 (not fully specified)
T1 chain: EEEIYGEXEA


Molecular target: T1, peptide 23, Dap-substituted pyrene …

Row | Protein | Km [µM] | Vmax [µmol/min/mg] | phosphorylation of the peptide (fluorescence)
1 | LynB (protein) MGCIKSKGKDSLSDDGVDLKTQPVPESQLLPGQRFQTKDPEEQGDIVVALYPYDGIHPDDLSFKKGEKMKVLEEHGEWWKAKSLLTKKEGFIPSNYVAKLNTLETEEWFFKDITRKDAERQLLAPGNSAGAFLIRESETLKGSFSLSVRDFDPVHGDVIKHYKIRSLDNGGYYISPRITFPCISDMIKHYQKQADGLCRRLEKACISPKPQKPWDKDAWEIPRESIKLVKRLGAGQFGEVWMGYYNNSTKVAVKTLKPGTMSVQAFLEEANLMKTLQHDKLVRLYAVVTREEPIYIITEYMAKGSLLDFLKSDEGGKVLLPKLIDFSAQIAEGMAYIERKNYIHRDLRAANVLVSESLMCKIADFGLARVIEDNEYTAREGAKFPIKWTAPEAINFGCFTIKSDVWSFGILLYEIVTYGKIPYPGRTNADVMTALSQGYRMPRVENCPDELYDIMKMCWKEKAEERPTFDYLQSVLDDFYTATEGQYQQQP | 130 | 4 | –
2 | MLK1 (protein) PPIQLLEIDFAELTLEEIIGIGGFGKVYRAFWIGDEVAVKAARHDPDEDISQTIENVRQEAKLFAMLKHPNIIALRGVCLKEPNLCLVMEFARGGPLNRVLSGKRIPPDILVNWAVQIARGMNYLHDEAIVPIIHRDLKSSNILILQKVENGDLSNKILKITDFGLAREWHRTTKMSAAGTYAWMAPEVIRASMFSKGSDVWSYGVLLWELLTGEVPFRGIDGLAVAYGVAMNKLALPIPSTCPEPFAKLMEDCWNPDPHSRPSFTNILDQLTTIEESGFFE | – | – | unable to effectively catalyze the phosphorylation of either 23 or 25
3 | Csk (protein) MSAIQAAWPSGTECIAKYNFHGTAEQDLPFCKGDVLTIVAVTKDPNWYKAKNKVGREGIIPANYVQKREGVKAGTKLSLMPWFHGKITREQAERLLYPPETGLFLVRESTNYPGDYTLCVSCDGKVEHYRIMYHASKLSIDEEVYFENLMQLVEHYTSDADGLCTRLIKPKVMEGTVAAQDEFYRSGWALNMKELKLLQTIGKGEFGDVMLGDYRGNKVAVKCIKNDATAQAFLAEASVMTQLRHSNLVQLLGVIVEEKGGLYIVTEYMAKGSLVDYLRSRGRSVLGGDCLLKFSLDVCEAMEYLEGNNFVHRDLAARNVLVSEDNVAKVSDFGLTKEASSTQDTGKLPVKWTAPEALREKKFSTKSDVWSFGILLWEIYSFGRVPYPRIPLKDVVPRVEKGYKMDAPDGCPPAVYEVMKNCWHLDAAMRPSFLQLREQLEHIKTHELHL | 120 | 0.4 | –
4 | Fes/Fps (protein) MGFSSELCSPQGHGVLQQMQEAELRLLEGMRKWMAQRVKSDREYAGLLHHMSLQDSGGQSRAISPDSPISQSWAEITSQTEGLSRLLRQHAEDLNSGPLSKLSLLIRERQQLRKTYSEQWQQLQQELTKTHSQDIEKLKSQYRALARDSAQAKRKYQEASKDKDRDKAKDKYVRSLWKLFAHHNRYVLGVRAAQLHHQHHHQLLLPGLLRSLQDLHEEMACILKEILQEYLEISSLVQDEVVAIHREMAAAAARIQPEAEYQGFLRQYGSAPDVPPCVTFDESLLEEGEPLEPGELQLNELTVESVQHTLTSVTDELAVATEMVFRRQEMVTQLQQELRNEEENTHPRERVQLLGKRQVLQEALQGLQVALCSQAKLQAQQELLQTKLEHLGPGEPPPVLLLQDDRHSTSSSEQEREGGRTPTLEILKSHISGIFRPKFSLPPPLQLIPEVQKPLHEQLWYHGAIPRAEVAELLVHSGDFLVRESQGKQEYVLSVLWDGLPRHFIIQSLDNLYRLEGEGFPSIPLLIDHLLSTQQPLTKKSGVVLHRAVPKDKWVLNHEDLVLGEQIGRGNFGEVFSGRLRADNTLVAVKSCRETLPPDLKAKFLQEARILKQYSHPNIVRLIGVCTQKQPIYIVMELVQGGDFLTFLRTEGARLRVKTLLQMVGDAAAGMEYLESKCCIHRDLAARNCLVTEKNVLKISDFGMSREEADGVYAASGGLRQVPVKWTAPEALNYGRYSSESDVWSFGILLWETFSLGASPYPNLSNQQTREFVEKGGRLPCPELCPDAVFRLMEQCWAYEPGQRPSFSTIYQELQSIRKRHR | 60 | 3 | –
5 | ZAP-70 (protein) MPDPAAHLPFFYGSISRAEAEEHLKLAGMADGLFLLRQCLRSLGGYVLSLVHDVRFHHFPIERQLNGTYAIAGGKAHCGPAELCEFYSRDPDGLPCNLRKPCNRPSGLEPQPGVFDCLRDAMVRDYVRQTWKLEGEALEQAIISQAPQVEKLIATTAHERMPWYHSSLTREEAERKLYSGAQTDGKFLLRPRKEQGTYALSLIYGKTVYHYLISQDKAGKYCIPEGTKFDTLWQLVEYLKLKADGLIYCLKEACPNSSASNASGAAAPTLPAHPSTLTHPQRRIDTLNSDGYTPEPARITSPDKPRPMPMDTSVYESPYSDPEELKDKKLFLKRDNLLIADIELGCGNFGSVRQGVYRMRKKQIDVAIKVLKQGTEKADTEEMMREAQIMHQLDNPYIVRLIGVCQAEALMLVMEMAGGGPLHKFLVGKREEIPVSNVAELLHQVSMGMKYLEEKNFVHRDLAARNVLLVNRHYAKISDFGLSKALGADDSYYTARSAGKWPLKWYAPECINFRKFSSRSDVWSYGVTMWEALSYGQKPYKKMKGPEVMAFIEQGKRMECPPECPPELYALMSDCWIYKWEDRPDFLTVEQRMRACYYSLASKVEGPPGSTQKAEAACA | – | – | unable to effectively catalyze the phosphorylation of either 23 or 25
6 | c-Met (protein) KKRKQIKDLGSELVRYDARVHTPHLDRLVSARSVSPTTEMVSNESVDYRATFPEDQFPNSSQNGSCRQVQYPLTDMSPILTSGDSDISSPLLQNTVHIDLSALNPELVQAVQHVVIGPSSLIVHFNEVIGRGHFGCVYHGTLLDNDGKKIHCAVKSLNRITDIGEVSQFLTEGIIMKDFSHPNVLSLLGICLRSEGSPLVVLPYMKHGDLRNFIRNETHNPTVKDLIGFGLQVAKGMKYLASKKFVHRDLAARNCMLDEKFTVKVADFGLARDMYDKEYYSVHNKTGAKLPVKWMALESLQTQKFTTKSDVWSFGVLLWELMTRGAPPYPDVNTFDITVYLLQGRRLLQPEYCPDPLYEVMLKCWHPKAEMRPSFSELVSRISAIFSTFIGEHYVHVNATYVNVKCVAPYPSLLSSEDNADDEVDTRPASFWETS | – | – | unable to effectively catalyze the phosphorylation of either 23 or 25
7 | Flt3 (protein) HKYKKQFRYESQLQMVQVTGSSDNEYFYVDFREYEYDLKWEFPRENLEFGKVLGSGAFGKVMNATAYGISKTGVSIQVAVKMLKEKADSSEREALMSELKMMTQLGSHENIVNLLGACTLSGPIYLIFEYCCYGDLLNYLRSKREKFHRTWTEIFKEHNFSFYPTFQSHPNSSMPGSREVQIHPDSDQISGLHGNSFHSEDEIEYENQKRLEEEEDLNVLTFEDLLCFAYQVAKGMEFLEFKSCVHRDLAARNVLVTHGKVVKICDFGLARDIMSDSNYVVRGNARLPVKWMAPESLFEGIYTIKSDVWSYGILLWEIFSLGVNPYPGIPVDANFYKLIQNGFKMDQPFYATEEIYIIMQSCWAFDSRKRPSFPNLTSFLGCQLADAEEAMYQNVDGRVSECPHTYQNRRPFSREMDLGLLSPQAQVEDS | 450 | 4.9 | –
